The source of these data is publication PMC2989778.

For the experiment, the target named is hCD40–BAFF-R_(His159-Tyr) chimera (human | mouse) (UniProt P25942). Put plainly: co-IP.

B1: TRAF3 (mouse, endogenous) (natural protein)
chain: MESSKKMDAAGTLQPNPPLKLQPDRGAGSVLVPEQGGYKEKFVKTVEDKYKCEKCRLVLCNPKQTECGHRFCESCMAALLSSSSPKCTACQESIIKDKVFKDNCCKREILALQVYCRNEGRGCAEQLTLGHLLVHLKNECQFEELPCLRADCKEKVLRKDLRDHVEKACKYREATCSHCKSQVPMIKLQKHEDTDCPCVVVSCPHKCSVQTLLRSELSAHLSECVNAPSTCSFKRYGCVFQGTNQQIKAHEASSAVQHVNLLKEWSNSLEKKVSLLQNESVEKNKSIQSLHNQICSFEIEIERQKEMLRNNESKILHLQRVIDSQAEKLKELDKEIRPFRQNWEEADSMKSSVESLQNRVTELESVDKSAGQAARNTGLLESQLSRHDQMLSVHDIRLADMDLRFQVLETASYNGVLIWKIRDYKRRKQEAVMGKTLSLYSQPFYTGYFGYKMCARVYLNGDGMGKGTHLSLFFVIMRGEYDALLPWPFKQKVTLMLMDQGSSRRHLGDAFKPDPNSSSFKKPTGEMNIASGCPVFVAQTVLENGTYIKDDTIFIKVIVDTSDLPDP
Molecule B1 gave a fold increase in recruitment against hCD40–BAFF-RWT (60 min) of 4 fold.

B2: TRAF2 (mouse, endogenous) (natural protein)
chain: MAAASVTSPGSLELLQPGFSKTLLGTRLEAKYLCSACKNILRRPFQAQCGHRYCSFCLTSILSSGPQNCAACVYEGLYEEGISILESSSAFPDNAARREVESLPAVCPNDGCTWKGTLKEYESCHEGLCPFLLTECPACKGLVRLSEKEHHTEQECPKRSLSCQHCRAPCSHVDLEVHYEVCPKFPLTCDGCGKKKIPRETFQDHVRACSKCRVLCRFHTVGCSEMVETENLQDHELQRLREHLALLLSSFLEAQASPGTLNQVGPELLQRCQILEQKIATFENIVCVLNREVERVAVTAEACSRQHRLDQDKIEALSNKVQQLERSIGLKDLAMADLEQKVSELEVSTYDGVFIWKISDFTRKRQEAVAGRTPAIFSPAFYTSRYGYKMCLRVYLNGDGTGRGTHLSLFFVVMKGPNDALLQWPFNQKVTLMLLDHNNREHVIDAFRPDVTSSSFQRPVSDMNIASGCPLFCPVSKMEAKNSYVRDDAIFIKAIVDLTGL
For the molecule B2, the fold increase in recruitment against hCD40–BAFF-RWT (60 min) was determined as 5 fold.
